Experimental findings from patent US20080241155A1 (Human Genome Sciences, published 2008) are described below.

Experiment [1] deals with T1, TRAIL (TNF-related apoptosis-inducing ligand), soluble (UniProt P50591 95-281, limits assumed).
T1 construct: also called Apo-2 ligand; Apo-2L
Nature of the experiment: receptor-Fc / ligand co-precipitation, immunoblot.

The target in experiment [2] is T2, Fas ligand (UniProt P48023 130-281, limits assumed).
T2 construct: Detected by immunoblotting with an antibody to FasL (Pharmingen)
T2 sequence (looked up): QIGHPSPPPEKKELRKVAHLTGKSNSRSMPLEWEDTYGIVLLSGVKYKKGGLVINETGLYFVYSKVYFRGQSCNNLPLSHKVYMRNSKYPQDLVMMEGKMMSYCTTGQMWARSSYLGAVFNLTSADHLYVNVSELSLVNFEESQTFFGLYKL
In words: receptor-Fc / ligand co-precipitation, immunoblot. A general note: In western blotting, separated proteins are transferred to a membrane and probed.

Experiment [3] has as its target T3, TNFα (tumor necrosis factor alpha) (UniProt P01375 77-233, limits assumed).
T3 construct: also called TNF alpha
Nature of the experiment: co-precipitation from mixed conditioned media with protein G-Sepharose, immunoblot.

T1 sequence (P50591 95-281 limits assumed): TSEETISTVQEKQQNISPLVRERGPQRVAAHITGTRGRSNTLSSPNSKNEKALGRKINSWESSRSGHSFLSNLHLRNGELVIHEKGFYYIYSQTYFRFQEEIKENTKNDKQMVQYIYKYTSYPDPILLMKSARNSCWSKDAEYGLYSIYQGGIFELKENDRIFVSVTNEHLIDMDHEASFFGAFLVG
T3 sequence (P01375 77-233 limits assumed): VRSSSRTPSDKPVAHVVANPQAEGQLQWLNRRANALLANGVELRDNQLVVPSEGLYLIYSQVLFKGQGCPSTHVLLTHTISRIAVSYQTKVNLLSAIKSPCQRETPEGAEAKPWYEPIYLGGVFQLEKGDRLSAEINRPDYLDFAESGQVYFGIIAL

B1: TNFR1-Fc (extracellular domain of TNFR-1 expressed as an Fc fusion) (Fc fusion, UniProt P19438 30-211, looked up)
chain: LVPHLGDREKRDSVCPQGKYIHPQNNSICCTKCHKGTYLYNDCPGPGQDTDCRECESGSFTASENHLRHCLSCSKCRKEMGQVEISSCTVDRDTVCGCRKNQYRHYWSENLFQCFNCSLCLNGTVHLSCQEKQNTVCTCHAGFFLRENECVSCSNCKKSLECTKLCLPQIENVKGTEDSGTT
notes: extracellular domain; not shown: Fc portion of human IgG
With B1, the binding result in experiment [1] is given as “no binding”.

B2: DR4-Fc (soluble extracellular ligand binding domain of DR4, amino acids 110 to 239, fused to the Fc portion of human IgG) (Fc fusion)
chain: TIKLHDQSIGTQQWEHSPLGELCPPGSHRSERPGACNRCTEGVGYTNASNNLFACLPCTACKSDEEERSPCTTTRNTACQCKPGTFRNDNSAEMCRKCSTGCPRGMVKVKDCTPWSDIECVHKESGNGHN
notes: Cloned into a modified pCMV1FLAG vector for in-frame fusion with human IgG Fc and expressed in 293 cells; used as conditioned medium; also called soluble extracellular DR4-Fc fusion; Fc-extracellular domain of DR4; not shown: Fc portion of human immunoglobulin (IgG)
B2: the binding result in experiment [2] and in experiment [3] was “no binding” each time.

B3: CD95-Fc (extracellular domain of CD-95 / Fas expressed as an Fc fusion) (Fc fusion, UniProt P25445 26-173, looked up)
chain: QVTDINSKGLELRKTVTTVETQNLEGLHHDGQFCHKPCPPGERKARDCTVNGDEPDCVPCQEGKEYTDKAHFSSKCRRCRLCDEGHGLEVEINCTRTQNTKCRCKPNFFCNSTVCEHCDPCTKCEHGIIKECTLTSNTKCKEEGSRSN
notes: extracellular domain; also called Fas-Fc; Fc-extracellular domain of Fas; not shown: Fc portion of human IgG
Take B3: the binding result in experiment [1] is reported as “no binding”.
